Key:
Experiment in all cases: SPR
[1] = biological target: NYE 3A peptide on HLA-A*02:01
[2] = biological target: NYE 6T peptide on HLA-A*02:01
[3] = biological target: NYE 4D peptide on HLA-A*02:01
[4] = biological target: NYE 3Y peptide on HLA-A*02:01
[5] = biological target: NYE 9V peptide (NYE-ESO157-165, heteroclitic 9V variant) on HLA-A*02:01
[6] = biological target: NYE 6V peptide on HLA-A*02:01
[7] = biological target: NYE 4E5E8E peptide on HLA-A*02:01

With Soluble 1G4 TCR as the substance, how does the Kd [1] read?
The Kd was 7 µM.

And the Kd [2]?
The Kd was 161 µM.

And the Kd [3]?
The Kd was 139 µM.

What about the Kd [4] of the same substance?
The Kd was 55 µM.

And the Kd [5]?
Its Kd is 8 µM.

What about the Kd [6] of the same substance?
Its Kd is 17 µM.

And the Kd [7]?
The Kd was 18 µM.
